Publication PMC3791464 (eLife, 2013)

T1: Drosophila Orc1 in untagged recombinant ORC (Drosophila melanogaster, UniProt O16810 1-924)
T1 construct: Drosophila Orc1; source: High5 cells co-infected with six baculoviruses, co-purified (Ni, amylose, TEV, gel filtration); not shown: 6×His, N-terminal, cleaved
T1 sequence (looked up): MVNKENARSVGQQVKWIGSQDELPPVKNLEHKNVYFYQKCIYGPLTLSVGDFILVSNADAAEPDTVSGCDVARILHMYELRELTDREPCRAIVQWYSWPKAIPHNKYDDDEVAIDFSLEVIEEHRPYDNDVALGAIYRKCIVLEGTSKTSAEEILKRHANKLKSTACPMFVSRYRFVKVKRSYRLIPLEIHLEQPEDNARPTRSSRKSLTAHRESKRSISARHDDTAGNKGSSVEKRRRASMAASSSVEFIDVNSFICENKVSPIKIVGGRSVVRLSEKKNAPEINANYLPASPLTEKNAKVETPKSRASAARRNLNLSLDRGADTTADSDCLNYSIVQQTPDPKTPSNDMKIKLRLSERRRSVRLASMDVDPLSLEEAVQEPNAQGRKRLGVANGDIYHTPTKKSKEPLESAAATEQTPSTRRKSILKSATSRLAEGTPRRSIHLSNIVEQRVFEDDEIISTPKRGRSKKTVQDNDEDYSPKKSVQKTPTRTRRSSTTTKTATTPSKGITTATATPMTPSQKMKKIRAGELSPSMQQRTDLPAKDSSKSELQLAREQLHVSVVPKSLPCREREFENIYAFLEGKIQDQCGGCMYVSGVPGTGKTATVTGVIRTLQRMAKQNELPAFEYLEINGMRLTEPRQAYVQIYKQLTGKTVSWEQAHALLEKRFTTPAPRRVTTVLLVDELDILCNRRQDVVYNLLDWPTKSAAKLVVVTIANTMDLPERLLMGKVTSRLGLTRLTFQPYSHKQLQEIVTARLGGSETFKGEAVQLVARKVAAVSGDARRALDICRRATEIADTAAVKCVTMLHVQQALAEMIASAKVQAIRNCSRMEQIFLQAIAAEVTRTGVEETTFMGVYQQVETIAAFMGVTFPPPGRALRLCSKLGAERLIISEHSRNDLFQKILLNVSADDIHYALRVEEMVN

B1: Drosophila Orc6, full-length (1–257), N-terminal 6×His (natural protein, Drosophila melanogaster, UniProt Q9Y1B2 1-257, looked up)
chain: MTTLIEQLITKMGLREEPNVLEKTTELVRLLELRSTNVPLQINEYGKIVLCADLASCMIGIAFDKEQALKLSGLRKSQYLNNKRMFEKLLDLNKLASVNDICVQLGLNEVARKAEELMTLFKGVAATEDMGTDTSHPQYATMAVFQACRLLKKKVSKSKLMPFSNLRPSQFQLLEQQWERMIAKHHKESKVPSSTDMEGKLKENQNENIKGHEAKKAHKPPPEDYEIWKARMLAKAQAKLKELEASQSHMDSQLLEA
modifications: Alexa Fluor 488 on the N-terminus (only in the fluorescence anisotropy assay)
notes: Drosophila Orc6, residues 1-257; also called wild-type Orc6; Orc6 WT; source: High5 cells (baculovirus): in lysate of co-infected cells; also purified (HisTrap, gel filtration); not shown: 6×His, N-terminal, kept
B2: Drosophila Orc6 in untagged recombinant ORC (natural protein, Drosophila melanogaster, UniProt Q9Y1B2 1-257, looked up)
chain: B1 chain
notes: Drosophila Orc6, no purification tag; source: High5 cells co-infected with six baculoviruses, co-purified (Ni, amylose, TEV, gel filtration)
B3: Drosophila Orc6 C-terminal domain (187–257), N-terminal 6×His (domain or fragment, Drosophila melanogaster, UniProt Q9Y1B2 187-257, looked up)
chain: KESKVPSSTDMEGKLKENQNENIKGHEAKKAHKPPPEDYEIWKARMLAKAQAKLKELEASQSHMDSQLLEA
modifications: Alexa Fluor 488 on the N-terminus (only in the fluorescence anisotropy assay)
notes: Drosophila Orc6, residues 187-257 (C-terminal domain); not detected in Western blots of whole-cell extract, but seen in the pull-downs; also called Orc6 187–257; Orc6 CTD; source: High5 cells (baculovirus): in lysate of co-infected cells; also purified (HisTrap, gel filtration); not shown: 6×His, N-terminal, kept
B4: Drosophila MBP–Orc6 187–257 (domain or fragment, Drosophila melanogaster, UniProt Q9Y1B2 187-257, looked up)
chain: B3 chain
notes: Drosophila Orc6, residues 187-257; also called N-terminally MBP-tagged C-terminal domain of Orc6 (amino acids 187–257); MBP-fusion of the C-terminal domain of Orc6; source: High5 cells co-infected with the ORC1–5 subunits, co-purified (Ni, amylose, gel filtration); not shown: MBP, N-terminal, kept
B5: Drosophila Orc3 in untagged recombinant ORC (natural protein, Drosophila melanogaster, UniProt Q7K2L1 1-721, looked up)
chain: MDPTISVSKGCFVYKNGATRAGKKAASKRKRPAAESSSLLGKEVVQQPFYEEYRKAWNQINDHIADLQHRSYARTLEQLVDFVVGQAERDTPDEVLPTAALLTGINQPDHLSQFTALTQRLHAQRAAMVCVLQSRDCATLKAAVETLVFGLVEDNAEVEQMEDEDEDEDGAERDRKRLRRSQCTMKQLKSWYTNNFDSEQKRRQLVVILPDFECFNASVLQDLILILSAHCGSLPFVLVLGVATAMTAVHGTLPYHVSSKIRLRVFQTQAAPTGLNEVLDKVLLSPKYAFHLSGKTFKFLTHIFLYYDFSIHGFIQGFKYCLMEHFFGGNAFALCTDYSKALGRIKQLTHEDMETIRRLPSFRPYVEQINDCKRIIAVLTDDDYLKKKLPQLLRDCLLHFLLFRCSLEFLTELVGDLPRCPLGKLRRELYVNCLNRAIISTPEYKECLQMLSFLSKDEFVAKVNRALERTEQFLVEEIAPLELGEACTAVLRPKLEAIRLAVDEVVKATMATITTTSPNETRQATDHLTPVASRQELKDQLLQRSKEDKMRHQLNTPTTQFGRALQKTLQLIETQIVQDHLRALQDAPPIHELFVFSDIATVRRNIIGAPRAALHTALNNPHFYMQCKCCELQDQSLLVGTLPDLSVVYKLHLECGRMINLFDWLQAFRSVVSDSDHEEVAQEQIDPQIQARFTRAVAELQFLGYIKMSKRKTDHATRLTW
notes: Drosophila Orc3, no purification tag; source: High5 cells co-infected with six baculoviruses, co-purified (Ni, amylose, TEV, gel filtration)
B6: Drosophila Orc2 in untagged recombinant ORC (natural protein, Drosophila melanogaster, UniProt Q24168 1-618, looked up)
chain: MSASNKGGYKTPRKENLMSIENLTNSEEESEDLNTAMVGNAVESQPKVTSRRSTRRPSPTKKYQAYQKESNGKGQEERIVVNYVEMSDERSSDAEDQEEEESIEESENAARPAAKDLHLIQSEYNVAGTSMFGFNTPKKRDAMALAALNATPCTPKTPKTPRLGVKTPDTKRKKSMDQPKTPAHVRTRVKKQIAKIVADSDEDFSGDESDFRPSDEESSSSSSSSDAGNSSDNDAADDEPKTPSRARRAIVVPVLPKTPSAARLRQSARAKKSNEFVPESDGYFHSHASSKILTSDHTLDRLKNPRLAADRVFSLLSEIKTSAEHEGSINAIMEEYRSYFPKWMCILNEGFNILLYGLGSKHQLLQSFHREVLHKQTVLVVNGFFPSLTIKDMLDSITSDILDAGISPANPHEAVDMIEEEFALIPETHLFLIVHNLDGAMLRNVKAQAILSRLARIPNIHLLASIDHINTPLLWDQGKLCSFNFSWWDCTTMLPYTNETAFENSLLVQNSGELALSSMRSVFSSLTTNSRGIYMLIVKYQLKNKGNATYQGMPFRDLYSSCREAFLVSSDLALRAQLTEFLDHKLVKSKRSVDGSEQLTIPIDGALLQQFLEEQEKK
notes: Drosophila Orc2, no purification tag; source: High5 cells co-infected with six baculoviruses, co-purified (Ni, amylose, TEV, gel filtration)
B7: Drosophila Orc4 in untagged recombinant ORC (natural protein, Drosophila melanogaster, UniProt Q9W102 1-459, looked up)
chain: MPEADRELVSIRRFLKERLQRDYTTLRGYAKERSNVRLLLQRTAEMGESNSLLLLGPRGSGKTTLINSVLADLLPNKSFGENTLIVHLDGNLHTDDRVALKSITVQMQLENAADGKVFGSFAENLAFLLQCLKAGGKHSKSVIFILEEFDLFCAHHNQTLLYNLFDVSQSAQAPICVLGVTCRLDVIELLEKRVKSRFSHRQVFLFPSLRRFEDYVDLCRDLLSLPTGNSLLLAAEKIYNLQNIQSGALYFSRNHFDPGEYGFSPRLRDAWNKQICKVLATQQARSTLQALHDFDISEAYLKNFLFRLVAHLRPQSPHITAEKMAAVGSQFEGDDKIELLCGLSVLELCLIIAIKHHSQIYDRDSFNFEIIYARFSKFAKVSTTMQAVERSIVLKAFEHLRIAELIMPLTGGAGGGVGKVQKEFEMHKLALTYSQIHHCMQRYQALPTEVAQWAQSSLI
notes: Drosophila Orc4; source: High5 cells co-infected with six baculoviruses, co-purified (Ni, amylose, TEV, gel filtration); not shown: MBP, N-terminal, cleaved
B8: Drosophila Orc5 in untagged recombinant ORC (natural protein, Drosophila melanogaster, UniProt Q24169 1-460, looked up)
chain: MEAICSSLEPLFPCREAAIETLGELIGDSSETYPSAIYLFGHSGTGKTALTRAFLKECGKRQNVRTAHLNAIECYTTKIMLEILLDSLAPDQGDALKVDNMLDFVEQLRRQAATRVEDQGFLIAVDNAERLRDMDANVLPVLLRLQELTNLNLCVILLSQLPFEKFYNKTGLSEIVCLHLAQYNKAETQRILGSDFQQVRNQLLEQFAQDKKRLEICQEAVTEDFYNNYLNLFLSVFYKACRDVPELQLTARKCLSTYLEPVLDGTVDATDISRLWRHIAGPLRSALTQIYMRIEKPAEEVEDFTAIEDQSVRKLAQSLELPYYAKFLLIAAFLASHNAAKQDKRLFVKHHGKQRKRMQTVNARAKTTEKMSTTLGPKSFSIDRLLAIFYAILEEKVGLTCNLLSQISTLVHLNLLSFVSGEQNIMEGSARLQCTIGLEFVLQIGKVVGFNVRQYLCDFM
notes: Drosophila Orc5; the methods list Orc4 twice and leave Orc5 out of the untagged subunits; source: High5 cells co-infected with six baculoviruses, co-purified (Ni, amylose, TEV, gel filtration)

Key:
[1] = target: Drosophila ORC1–5 (ORC lacking Orc6), purified, 6×His-Orc1 and MBP–Orc4 (Drosophila melanogaster) (UniProt O16810); test: fluorescence polarisation; fluorescence anisotropy, apparent Kd; 30 nM Orc6 N-terminally labelled with Alexa Fluor 488, ORC1–5 in twofold dilutions from 1 µM to 122 pM; 50 mM Tris HCl pH 7.8, 300 mM KCl, 5% glycerol, 1 mM DTT, 0.1 mg/ml BSA; 1 hr on ice; single-site fit with ligand depletion
[2] = target: T2, Drosophila ORC1–5 (ORC lacking Orc6), purified, 6×His-Orc1 and MBP–Orc4 (Drosophila melanogaster, UniProt O16810 1-924; Q24168 1-618; Q7K2L1 1-721; Q9W102 1-459; Q24169 1-460); test: as above; settings: both partners purified
T2 construct: Drosophila Orc1; Drosophila Orc2, untagged; Drosophila Orc3, untagged; Drosophila Orc4; Drosophila Orc5, untagged; source: High5 cells co-infected with five baculoviruses, purified (Ni, amylose, gel filtration; TEV step omitted); not shown: 6×His, N-terminal, kept; MBP, N-terminal, kept; copies: + + + +

[3] = target: T1, Drosophila Orc1 in untagged recombinant …; test: SEC; analytical gel filtration of purified, co-expressed untagged Drosophila ORC on a Superose 6 column; elutes as a hexamer of ~390 kDa; settings: both partners purified
[4] = target: T3, Drosophila ORC1–5 in MBP-tagged ORC for EM (6×His-Orc1, other subunits untagged) (Drosophila melanogaster, UniProt O16810 1-924; Q24168 1-618; Q7K2L1 1-721; Q9W102 1-459; Q24169 1-460); test: co-purification over several chromatography steps; MBP–Orc6 187–257 co-expressed with 6×His-Orc1 and untagged Orc2–Orc5 in High5 cells; Ni affinity, amylose affinity and gel filtration, TEV step omitted; settings: partners not purified
T3 construct: Drosophila Orc1; Drosophila Orc2, untagged; Drosophila Orc3, untagged; Drosophila Orc4, untagged; Drosophila Orc5, untagged; source: High5 cells co-infected, co-purified with MBP–Orc6 187–257 (Ni, amylose, gel filtration; TEV step omitted); not shown: 6×His, N-terminal, kept; copies: + + + +

Row | Molecule | binding result [3] | also measured
1 | Drosophila Orc6-Y225S, N-terminal 6×His (from UniProt Q9Y1B2 1-257) (natural protein) | – | fold reduction of affinity against wild type Orc6 [1]: > 100 fold
2 | B1 | – | Kd [2]: 5 ± 0.7 nM
3 | B2 | binds | –
4 | B3 | – | Kd [2]: 4.8 ± 0.6 nM
5 | B4 | – | binding result [4]: binds
6 | B5 | binds | –
7 | B6 | binds | –
8 | B7 | binds | –
9 | B8 | binds | –
